In doi:10.1101/2021.04.27.441644 (bioRxiv, 2021) one finds Kd data, which are given here for three molecules.

This experiment addresses filamentous actin (F-actin) (rabbit, UniProt P68135 1-377). Description: co-sedimentation.

B1: CLIP-170 S2-CG2-S3 fragment (H1 156-350) (domain or fragment)
chain: MVSSSPSTPSNIPQKPSQPAAKEPSATPPISNLTKTASESISNLSEAGSIKKGERELKIGDRVLVGGTKAGVVRFLGETDFAKGEWCGVELDEPLGKNDGAVAGTRYFQCQPKYGLFAPVHKVTKIGFPSTTPAKAKANAVRRVMATTSASLKRSPSASSLSSMSSVASSVSSRPSRTGLLTETSSRYARKISGT
Turning to B1, the dissociation constant (Kd) (in general, the equilibrium constant for the complex coming apart) was around 10 µM.

B2: CLIP-170 CG2-S3 fragment (H1 203-350) (domain or fragment)
chain: GSIKKGERELKIGDRVLVGGTKAGVVRFLGETDFAKGEWCGVELDEPLGKNDGAVAGTRYFQCQPKYGLFAPVHKVTKIGFPSTTPAKAKANAVRRVMATTSASLKRSPSASSLSSMSSVASSVSSRPSRTGLLTETSSRYARKISGT
For B2, the affinity, expressed as Kd, was 20 µM. In other words, the double-digit micromolar range.

B3: CLIP-170 CG2 fragment (H1 206-288) (domain or fragment)
chain: KKGERELKIGDRVLVGGTKAGVVRFLGETDFAKGEWCGVELDEPLGKNDGAVAGTRYFQCQPKYGLFAPVHKVTKIGFPSTTP
As for B3, the Kd was around 90 µM.
